Laboratory results taken from patent US20040001835A1, “Prevention or treatment of cancer using integrin alphavbeta3 antagonists in combination with other agents” (MedImmune, Inc., priority 2002, published 2004).
“Also recorded” adds a separate entry of the source.

Legend:
[1] = target: T1, αvβ3 expressed on placenta (placental trophoblasts) (Homo sapiens, UniProt P05106); assay: Immunohistochemical staining of placental trophoblasts; type: binding; settings: frozen thin sections, antibody 10 μg/ml
T1 construct: from tissue; host or cells: placenta (frozen sections)
Experimental: Table 3. Immunohistochemical staining of placental trophoblasts. Placental tissue, a rich source of αvβ3, was collected either immediately after parturition or from freshly-sacrificed, late-term pregnant animals. Tissue fragments, approximately 1 cm^3, were frozen in OCT, and thin sections were stained with monoclonal antibodies (10 μg/ml) at Sierra Biomedical (Sparks, Nev.). Vitaxin® recognized αvβ3 expressed on human, monkey, guinea pig, hamster and rabbit placenta, while […] with human and monkey αvβ3. […] ND, not done.

Rabbit αvβ3 = assay: Flow cytometric analysis of antibody binding to cell lines
Experimental: (§1) FIG. 2. Flow cytometric analysis of antibody binding to tumor cell lines. […] Rat αvβ3 was not recognized by any of the three antibodies but was detected by the anti-rat αvβ3 control antibody.
(§2) Cells (5×10^5) were incubated with 0.5 μg of antibody and bound antibody was detected with a phycoerythrin-labeled secondary antibody. Mean channel fluorescence results are expressed as fold increase over an isotype matched control antibody. The mouse anti-rat β3 antibody F11 was included for as a positive control for the rat cell line RG2. HMVEC, human microvascular endothelial cells; ND, not done.

Rat αvβ3 = target: T2, Rat αvβ3 (Rattus norvegicus, UniProt Q8R2H2); assay: as above; settings: Rat RG2 glioma; 5×10^5 cells, 0.5 μg antibody; vs isotype matched control antibody
T2 construct: endogenous in cells; host or cells: RG2 glioma
T2 sequence (Q8R2H2 26-787): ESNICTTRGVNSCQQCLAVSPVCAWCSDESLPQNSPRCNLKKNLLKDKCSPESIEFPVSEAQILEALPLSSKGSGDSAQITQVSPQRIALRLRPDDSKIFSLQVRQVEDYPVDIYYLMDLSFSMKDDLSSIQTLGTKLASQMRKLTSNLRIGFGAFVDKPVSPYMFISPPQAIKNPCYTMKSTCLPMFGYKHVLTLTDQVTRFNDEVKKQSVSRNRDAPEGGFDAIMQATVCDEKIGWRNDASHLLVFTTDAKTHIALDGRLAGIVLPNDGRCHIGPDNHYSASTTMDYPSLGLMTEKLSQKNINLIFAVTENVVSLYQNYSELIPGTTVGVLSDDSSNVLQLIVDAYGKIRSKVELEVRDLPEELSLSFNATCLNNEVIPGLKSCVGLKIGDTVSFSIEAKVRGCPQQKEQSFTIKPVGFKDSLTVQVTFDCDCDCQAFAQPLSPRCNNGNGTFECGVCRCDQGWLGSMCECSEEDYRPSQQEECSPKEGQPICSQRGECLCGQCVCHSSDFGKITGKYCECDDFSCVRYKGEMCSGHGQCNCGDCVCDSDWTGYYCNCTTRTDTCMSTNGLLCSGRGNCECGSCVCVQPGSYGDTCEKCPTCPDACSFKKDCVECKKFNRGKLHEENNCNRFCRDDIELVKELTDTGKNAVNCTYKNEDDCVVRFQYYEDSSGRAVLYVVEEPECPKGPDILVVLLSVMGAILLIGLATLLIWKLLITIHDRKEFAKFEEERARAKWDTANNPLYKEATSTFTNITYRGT
Experimental: as §1, §2

hamster αvβ3 = assay: as above
Experimental: as §1, §2

human αvβ3 = target: T3, human αvβ3 (Homo sapiens, UniProt P05106); assay: as above; settings: for Fold Increase Over Control (mean channel fluorescence): 5×10^5 cells, 0.5 μg antibody, vs isotype matched control antibody
T3 construct: endogenous in cells; host or cells: M21 melanoma, HMVEC, HUVEC
Experimental: as §1, §2

[2] = target: T4, human β3 Mutant A (E171Q) (Homo sapiens, UniProt P05106, E197Q); assay: FACS analysis of HEK293 transfectants, human β3 containing rat residues; type: binding; settings: flow cytometry
T4 construct: expressed in transfected cells; host or cells: HEK293
Text: (§3) FIG. 4. Binding of Integrin αvβ3 specific antibodies to human β3 containing rat residues.
(§4) Sequence comparison of residues 164 to 202 of β3 integrins from different species and design of mutations. To further characterize the binding epitope of Vitaxin®, the gene encoding β3 was cloned and sequenced from hamster cDNA. The amino acids in the region previously proposed to contain the LM609 binding epitope are shown above (dashed lines depict conserved residues). To determine which residues in the human sequence were essential for antibody binding, the amino acids shown in color were mutated to the corresponding rat residues. The resulting genes were transfected to HEK293 cells which express endogenous human αv. Resulting cell lines were analyzed by flow cytometry for antibody binding.
(§5) This protocol is used to assess the surface expression of integrins in HEK-293 cells transfected with various Integrin subunits. Primary antibodies bound to the integrins are detected by fluorochrome-conjugated secondary antibodies and analyzed by flow cytometry.
(§6) 1. Wash adherent cells twice with 5 ml of PBS.
(§7) 2. Add 1.5 ml of trypsin solution or cell dissociation solution, incubate at 37_C. foir 2 min.
(§8) 3. Add 3 ml of culture medium or FACs buffer to the plate and loosen cells from the plate by pipetting. Count cells. Resuspend cells in FACs buffer at 5×10^6 per ml.
(§9) 4. Transfer an aliquot of 5×10^5 cells (100 μl) into microfuge tubes containing 10 μg mouse IgG or human IgG. Incubate cells for 20 min at RT to block IgG receptor sites. Note: use mouse IgG for blocking when using human primary mAb; use human IgG for blocking when using mouse primary mAb.
(§10) 5. Add […] of Vitaxin®, or other primary mAb, and incubate for 20 min at RT.
(§11) 6. Wash twice with 500 μl of FACS buffer, spinning cells at 1500 rpm for 5 minutes.
(§12) 7. Add 0.5 mg of goat anti-human IgG Alexa 488, or other secondary antibodies, and incubate for 20 min at RT.
(§13) 8. Wash twice with 500 μl FACS buffer, spinning cells at 1500 rpm for 5 minutes.
(§14) 9. Resuspend in 500 μl buffer for FACS analysis.
(§15) 10. Use unstained cells for background. For negative control, use secondary antibody alone.

[3] = target: T5, human β3 Mutant A + C (E171Q D179T T182S) (Homo sapiens, UniProt P05106, D205T/E197Q/T208S); assay: as above; type: binding; settings: flow cytometry
T5 construct: expressed in transfected cells; host or cells: HEK293
Text: as §3, §4, §5, §6, §7, §8, §9, §10, §11, §12, §13, §14, §15

[4] = target: T6, human β3 Mutant ABC (E171Q L173I E174K D179T T182S) (Homo sapiens, UniProt P05106, D205T/E197Q/E200K/L199I/T208S); assay: as above; type: binding; settings: flow cytometry
T6 construct: expressed in transfected cells; host or cells: HEK293
Text: as §3, §4, §5, §6, §7, §8, §9, §10, §11, §12, §13, §14, §15

[5] = target: T7, human β3 Mutant B (L173I E174K) (Homo sapiens, UniProt P05106, E200K/L199I); assay: as above; type: binding; settings: flow cytometry
T7 construct: expressed in transfected cells; host or cells: HEK293
Text: as §3, §4, §5, §6, §7, §8, §9, §10, §11, §12, §13, §14, §15

[6] = flow cytometry, tumor cell lines, FIG. 2

T3 sequence (P05106 27-788): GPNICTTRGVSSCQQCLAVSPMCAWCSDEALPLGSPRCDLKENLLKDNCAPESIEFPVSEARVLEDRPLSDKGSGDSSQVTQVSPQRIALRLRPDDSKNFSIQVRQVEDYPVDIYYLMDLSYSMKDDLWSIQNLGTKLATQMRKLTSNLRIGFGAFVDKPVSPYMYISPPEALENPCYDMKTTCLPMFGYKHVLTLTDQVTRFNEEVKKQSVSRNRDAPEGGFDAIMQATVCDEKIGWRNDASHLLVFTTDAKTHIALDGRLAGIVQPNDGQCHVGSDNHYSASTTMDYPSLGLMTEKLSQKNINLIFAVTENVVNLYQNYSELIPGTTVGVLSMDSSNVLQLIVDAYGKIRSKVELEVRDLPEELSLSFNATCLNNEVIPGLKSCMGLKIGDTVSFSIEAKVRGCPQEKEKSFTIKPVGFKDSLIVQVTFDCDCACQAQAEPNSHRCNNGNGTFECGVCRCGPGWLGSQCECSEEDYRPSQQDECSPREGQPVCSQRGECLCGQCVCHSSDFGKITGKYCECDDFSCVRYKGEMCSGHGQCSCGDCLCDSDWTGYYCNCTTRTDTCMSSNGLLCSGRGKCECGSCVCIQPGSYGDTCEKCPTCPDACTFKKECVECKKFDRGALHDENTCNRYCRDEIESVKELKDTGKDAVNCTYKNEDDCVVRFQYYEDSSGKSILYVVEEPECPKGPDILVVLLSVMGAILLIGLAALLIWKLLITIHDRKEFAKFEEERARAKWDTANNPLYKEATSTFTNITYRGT
T3 sequence (P06756 31-889 partner limits assumed): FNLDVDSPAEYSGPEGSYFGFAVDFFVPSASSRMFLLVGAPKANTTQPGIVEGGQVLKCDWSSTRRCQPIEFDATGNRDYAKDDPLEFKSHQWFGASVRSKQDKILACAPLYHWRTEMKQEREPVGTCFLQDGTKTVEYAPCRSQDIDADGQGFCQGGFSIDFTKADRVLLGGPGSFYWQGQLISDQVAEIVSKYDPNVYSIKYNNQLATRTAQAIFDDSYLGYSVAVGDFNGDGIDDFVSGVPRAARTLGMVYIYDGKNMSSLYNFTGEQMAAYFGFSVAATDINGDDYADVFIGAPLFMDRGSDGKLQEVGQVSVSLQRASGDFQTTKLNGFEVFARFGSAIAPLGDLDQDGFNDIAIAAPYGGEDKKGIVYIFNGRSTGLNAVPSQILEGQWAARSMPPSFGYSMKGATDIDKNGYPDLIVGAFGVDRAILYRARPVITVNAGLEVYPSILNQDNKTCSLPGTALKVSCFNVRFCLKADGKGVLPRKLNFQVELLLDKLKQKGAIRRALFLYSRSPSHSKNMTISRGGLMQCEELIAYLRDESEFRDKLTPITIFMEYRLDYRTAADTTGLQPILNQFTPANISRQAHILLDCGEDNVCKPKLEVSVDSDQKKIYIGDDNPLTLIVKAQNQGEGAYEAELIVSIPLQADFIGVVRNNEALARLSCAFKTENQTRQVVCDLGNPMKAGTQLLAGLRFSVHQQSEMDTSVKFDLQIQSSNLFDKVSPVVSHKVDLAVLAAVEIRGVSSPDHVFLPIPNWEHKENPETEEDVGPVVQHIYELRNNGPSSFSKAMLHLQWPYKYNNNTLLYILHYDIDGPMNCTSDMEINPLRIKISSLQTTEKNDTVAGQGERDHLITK
T3 sequence (P06756 891-1048 partner limits assumed): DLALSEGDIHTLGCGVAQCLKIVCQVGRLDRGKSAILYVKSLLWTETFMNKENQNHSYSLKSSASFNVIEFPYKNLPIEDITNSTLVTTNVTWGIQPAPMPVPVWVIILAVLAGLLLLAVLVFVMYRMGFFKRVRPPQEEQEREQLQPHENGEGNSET
T5 sequence (P05106 27-788 E197Q/D205T/T208S): as the sequence (P05106 27-788) above, with E171Q, D179T, T182S counted along it
T5 sequence (P06756 31-889 partner limits assumed): as the sequence (P06756 31-889 partner limits assumed) above
T5 sequence (P06756 891-1048 partner limits assumed): as the sequence (P06756 891-1048 partner limits assumed) above
T6 sequence (P05106 27-788 E197Q/L199I/E200K/D205T/T208S): as the sequence (P05106 27-788) above, with E171Q, L173I, E174K, D179T, T182S counted along it
T6 sequence (P06756 31-889 partner limits assumed): as the sequence (P06756 31-889 partner limits assumed) above
T6 sequence (P06756 891-1048 partner limits assumed): as the sequence (P06756 891-1048 partner limits assumed) above
T7 sequence (P05106 27-788 L199I/E200K): as the sequence (P05106 27-788) above, with L173I, E174K counted along it
T7 sequence (P06756 31-889 partner limits assumed): as the sequence (P06756 31-889 partner limits assumed) above
T7 sequence (P06756 891-1048 partner limits assumed): as the sequence (P06756 891-1048 partner limits assumed) above
T4 sequence (P05106 27-788 E197Q): as the sequence (P05106 27-788) above, with E171Q counted along it
T4 sequence (P06756 31-889 partner limits assumed): as the sequence (P06756 31-889 partner limits assumed) above
T4 sequence (P06756 891-1048 partner limits assumed): as the sequence (P06756 891-1048 partner limits assumed) above
T1 sequence (P05106 27-788): as the sequence (P05106 27-788) above
T1 sequence (P06756 31-889 partner limits assumed): as the sequence (P06756 31-889 partner limits assumed) above
T1 sequence (P06756 891-1048 partner limits assumed): as the sequence (P06756 891-1048 partner limits assumed) above

B1: Vitaxin®: humanized blocking monoclonal antibody that binds Integrin αVβ3 (MEDI-522, MedImmune); humanized and optimized version of LM609 (antibody, chains of the INN, looked up, V domains shown)
VH: QVQLVESGGGVVQPGRSLRLSCAASGFTFSSYDMSWVRQAPGKGLEWVAKVSSGGGSTYYLDTVQGRFTISRDNSKNTLYLQMNSLRAEDTAVYYCARHLHGSFASWGQGTTVTVSS
VL: EIVLTQSPATLSLSPGERATLSCQASQSISNFLHWYQQRPGQAPRLLIRYRSQSISGIPARFSGSGSGTDFTLTISSLEPEDFAVYYCQQSGSWPLTFGGGTKVEIK
Staining of Placental Trophoblasts [1]: recognized
Fold Increase Over Control (mean channel fluorescence) (Rabbit αvβ3; Rabbit VX7 carcinoma, 5×10^5 cells, 0.5 μg antibody, vs isotype matched control antibody): 17 fold
binding to rabbit αvβ3 (in words) (Rabbit αvβ3; [6]): recognized
Fold Increase Over Control (mean channel fluorescence) (Rat αvβ3): 0.95 fold
Fold Increase Over Control (mean channel fluorescence) (hamster αvβ3; Hamster CCL-49 melanoma, 5×10^5 cells, 0.5 μg antibody, vs isotype matched control antibody): 12 fold
binding to hamster αvβ3 (in words) (hamster αvβ3; [6]): recognized; also recorded: capable of binding
Fold Increase Over Control (mean channel fluorescence) (human αvβ3; Human HMVEC endothelial): 8.9 fold
Fold Increase Over Control (mean channel fluorescence) (human αvβ3; Human M21 melanoma): 73 fold
binding to human αvβ3 (in words) (human αvβ3; [6]): recognized; also recorded: capable of binding
effect of Mutation A (Glu to Gln at position 171) on antibody binding [2]: disrupts binding
effect of Mutations A and C combined on antibody binding [3]: disrupts binding; also recorded: eliminated binding
effect of changing all three regions (A, B and C) to rat residues on antibody binding [4]: disrupt binding; also recorded: completely eliminate binding
effect of Mutation B (Leu, Glu to Ile, Lys at positions 173 and 174) on antibody binding [5]: disrupt binding
